Experimental data published in PMC9287719.
pIC50: −log10 of the molar value. Where two headings read alike, the source gives them in different places.

What was measured:
[1] = target: Recombinant FcγRIIIa (F158) with C-terminus Biotin (human) (UniProt P08637)
[2] = target: Recombinant FcγRIIa (H131) with C-terminus Biotin (human) (UniProt P12318)
[3] = target: Recombinant FcγRIIa (R131) with C-terminus Biotin (human) (UniProt P12318)
[4] = target: Recombinant FcγRIIIa (V158) with C-terminus Biotin (human)
Target sequence in this assay (P08637 17-208 F176V): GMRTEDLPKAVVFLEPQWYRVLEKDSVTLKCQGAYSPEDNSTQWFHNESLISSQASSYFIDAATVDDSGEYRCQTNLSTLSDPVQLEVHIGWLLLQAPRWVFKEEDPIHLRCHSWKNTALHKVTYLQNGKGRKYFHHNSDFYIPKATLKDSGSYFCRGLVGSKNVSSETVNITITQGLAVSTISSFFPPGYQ

[5] = target: Recombinant FcγRIIb with C-terminus Biotin (human) (UniProt P31994)
[6] = target: Recombinant FcγRIIa (R131) with C-terminus Biotin (human) (UniProt P12318); remark: listed apart in the source
[7] = target: Recombinant FcγRIIIa (V158) with C-terminus Biotin (human); remark: listed apart in the source
Target sequence in this assay (P08637 17-208 F176V): as above

[8] = target: Recombinant FcγRI with C-terminus Biotin (human) (UniProt P12314)
[9] = target: Recombinant FcγRIIa (H131) with C-terminus Biotin (human) (UniProt P12318); remark: listed apart in the source
[10] = target: Recombinant FcγRIIa (H131) with C-terminus Biotin (human) (UniProt P12318); remark: listed apart in the source
[11] = target: Recombinant FcγRIIa (R131) with C-terminus Biotin (human) (UniProt P12318); remark: listed apart in the source
[12] = target: Recombinant FcγRI with C-terminus Biotin (human) (UniProt P12314); remark: listed apart in the source
[13] = target: Recombinant FcγRIIb with C-terminus Biotin (human) (UniProt P31994); assay: other; qualitative only
[14] = target: Recombinant FcγRIIIa (F158) with C-terminus Biotin (human) (UniProt P08637); assay: split reporter (BiFC, NanoBiT); homogeneous competition assay in solution for FcγRIIa and FcγRIIIa variants: sample competes with IgG-LgBiT tracer for FcγR-Biotin mixed 1:1 with Streptavidin-SmBiT; 30–60 min; PBS with 10% superblock; IC50 equivalent to apparent affinity (KD)
[15] = target: Recombinant FcγRIIa (R131) with C-terminus Biotin (human); assay: as above
[16] = target: Recombinant FcγRIIa (H131) with C-terminus Biotin (human) (UniProt P12318); assay: as above
[17] = target: Recombinant FcγRIIIa (V158) with C-terminus Biotin (human); assay: as above

Chain of Recombinant FcγRIIa (H131) with C-terminus Biotin (human) (P12318 34-217): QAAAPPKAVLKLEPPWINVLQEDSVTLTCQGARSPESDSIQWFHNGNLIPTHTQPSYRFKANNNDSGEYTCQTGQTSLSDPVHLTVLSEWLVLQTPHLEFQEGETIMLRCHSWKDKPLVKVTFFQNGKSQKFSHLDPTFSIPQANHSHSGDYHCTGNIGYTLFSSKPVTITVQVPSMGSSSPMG
Chain of Human IgG4 (P01861 whole entry, looked up): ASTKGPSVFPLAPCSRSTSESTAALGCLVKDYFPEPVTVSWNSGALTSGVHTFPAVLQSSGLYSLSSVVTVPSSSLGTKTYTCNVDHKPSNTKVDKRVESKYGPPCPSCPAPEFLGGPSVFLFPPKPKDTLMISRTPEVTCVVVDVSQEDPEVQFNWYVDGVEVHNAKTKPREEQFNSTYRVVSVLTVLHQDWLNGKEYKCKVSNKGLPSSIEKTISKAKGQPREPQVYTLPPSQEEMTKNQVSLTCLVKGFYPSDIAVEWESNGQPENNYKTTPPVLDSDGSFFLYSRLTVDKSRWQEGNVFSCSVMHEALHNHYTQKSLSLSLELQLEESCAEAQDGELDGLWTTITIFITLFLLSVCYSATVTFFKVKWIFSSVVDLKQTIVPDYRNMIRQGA
Chain of Recombinant FcγRIIa (R131) with C-terminus Biotin (human) (UniProt P12318) (P12318 34-217 H167R): as the sequence (P12318 34-217) above, with H134R counted along it
Chain of Human IgG2 (P01859 whole entry, looked up): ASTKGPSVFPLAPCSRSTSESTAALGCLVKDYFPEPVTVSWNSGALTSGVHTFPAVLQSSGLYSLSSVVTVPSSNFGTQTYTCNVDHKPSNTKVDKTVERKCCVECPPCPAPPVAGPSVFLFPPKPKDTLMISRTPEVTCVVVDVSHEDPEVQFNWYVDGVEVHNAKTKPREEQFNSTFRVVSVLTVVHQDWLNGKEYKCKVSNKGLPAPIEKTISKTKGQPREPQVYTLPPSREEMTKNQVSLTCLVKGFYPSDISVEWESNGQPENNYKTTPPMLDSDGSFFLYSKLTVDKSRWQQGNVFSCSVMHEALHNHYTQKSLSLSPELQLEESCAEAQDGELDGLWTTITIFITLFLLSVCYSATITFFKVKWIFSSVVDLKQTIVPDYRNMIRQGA
Chain of Recombinant FcγRI with C-terminus Biotin (human) (P12314 16-292): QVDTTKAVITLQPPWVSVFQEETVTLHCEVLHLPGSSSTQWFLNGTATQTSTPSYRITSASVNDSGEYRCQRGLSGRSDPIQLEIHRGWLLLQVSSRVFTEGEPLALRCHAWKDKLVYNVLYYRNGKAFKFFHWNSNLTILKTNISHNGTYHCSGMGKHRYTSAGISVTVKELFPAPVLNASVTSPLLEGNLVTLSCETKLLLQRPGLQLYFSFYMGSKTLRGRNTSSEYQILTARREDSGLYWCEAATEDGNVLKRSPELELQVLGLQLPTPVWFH
Chain of Recombinant FcγRIIIa (F158) with C-terminus Biotin (human) (P08637 17-208): as the sequence (P08637 17-208 F176V) above, with V160F counted along it
Chain of Recombinant FcγRIIb with C-terminus Biotin (human) (P31994 43-217): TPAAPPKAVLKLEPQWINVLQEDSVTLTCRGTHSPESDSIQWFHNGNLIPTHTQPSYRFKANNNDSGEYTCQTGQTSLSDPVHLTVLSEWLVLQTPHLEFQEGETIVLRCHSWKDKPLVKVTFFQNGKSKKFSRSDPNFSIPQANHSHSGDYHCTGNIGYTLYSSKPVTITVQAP

A pIC50 [1] of 7.02, a pIC50 [2] of 7.25 and a pIC50 [3] of 6.75 were found for Gammagard (from UniProt P01857) in this work. The pIC50 [4] was 7.90 and the pIC50 [5] was 5.95.
A pIC50 [6] of 6.29, a pIC50 [7] of 5.69 and a pIC50 [8] of 7.53 were found for Human IgG2 (from UniProt P01859) in this work. It also gave a pIC50 [9] of 7.11.
A pIC50 [10] of 6.99, a pIC50 [11] of 6.89 and a pIC50 [12] of 8.97 were found for Human IgG4 (from UniProt P01861) in this work. It also gave a pIC50 [13] of 6.24.
A pIC50 [14] of 6.97, a pIC50 [15] of 7.37 and a pIC50 [16] of 7.95 were found for “Human IgG (human polyclonal IgG) (antibody)” in this work. For the same substance, the pIC50 [17] was 7.73.
